Reference: article PMC6731145

B1: NRCAM-DNA (dsDNA)
DNA 1: GATCCATTACTTCTGAAACAGATGACTCCCAGCAGCTGCTGCCTGTGGCCCACAGGGCTTCCTGCCCTGCATGACAGCTGCACATCACATCCTGTGGTCATACTACTTCAGCCGCTTCTACGGCCAGATACAAAAGTGGGTGGGGAACATAGGCAAGGGATC
DNA 2: GATCCCTTGCCTATGTTCCCCACCCACTTTTGTATCTGGCCGTAGAAGCGGCTGAAGTAGTATGACCACAGGATGTGATGTGCAGCTGTCATGCAGGGCAGGAAGCCCTGTGGGCCACAGGCAGCAGCTGCTGGGAGTCATCTGTTTCAGAAGTAATGGATC
B2: CX3CR1-DNA (dsDNA)
DNA 1: GATCCGCAGGGCCTCTCGGCTGCTGATCTTCAGCTGGTTGCTGAGAGTTGCAGCATTGCTGAGTCTTAGCAATGGATACTTCCCGATTCCCCTCACAAAAATAGGTCAGTCTGTCTGGCTAGTTCTGTACTTGCAGACACAGGGCATGTGGGGTTCCGGATC
DNA 2: GATCCGGAACCCCACATGCCCTGTGTCTGCAAGTACAGAACTAGCCAGACAGACTGACCTATTTTTGTGAGGGGAATCGGGAAGTATCCATTGCTAAGACTCAGCAATGCTGCAACTCTCAGCAACCAGCTGAAGATCAGCAGCCGAGAGGCCCTGCGGATC

What was measured:
[1] = target: TFAP-2α (human, UniProt P05549 1-437); assay: EMSA
[2] = target: CEBPβ T167D (mouse, UniProt P28033-3 1-275, T167D); assay: EMSA
Sequence of CEBPβ T167D (P28033 22-296 T188D): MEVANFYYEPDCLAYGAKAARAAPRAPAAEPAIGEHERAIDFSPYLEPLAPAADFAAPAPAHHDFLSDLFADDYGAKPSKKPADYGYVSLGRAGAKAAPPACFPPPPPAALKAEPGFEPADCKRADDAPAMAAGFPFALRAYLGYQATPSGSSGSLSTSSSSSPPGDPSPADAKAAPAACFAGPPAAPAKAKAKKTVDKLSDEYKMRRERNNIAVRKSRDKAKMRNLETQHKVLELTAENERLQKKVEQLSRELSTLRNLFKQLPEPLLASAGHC

Sequence of TFAP-2α (P05549 whole entry): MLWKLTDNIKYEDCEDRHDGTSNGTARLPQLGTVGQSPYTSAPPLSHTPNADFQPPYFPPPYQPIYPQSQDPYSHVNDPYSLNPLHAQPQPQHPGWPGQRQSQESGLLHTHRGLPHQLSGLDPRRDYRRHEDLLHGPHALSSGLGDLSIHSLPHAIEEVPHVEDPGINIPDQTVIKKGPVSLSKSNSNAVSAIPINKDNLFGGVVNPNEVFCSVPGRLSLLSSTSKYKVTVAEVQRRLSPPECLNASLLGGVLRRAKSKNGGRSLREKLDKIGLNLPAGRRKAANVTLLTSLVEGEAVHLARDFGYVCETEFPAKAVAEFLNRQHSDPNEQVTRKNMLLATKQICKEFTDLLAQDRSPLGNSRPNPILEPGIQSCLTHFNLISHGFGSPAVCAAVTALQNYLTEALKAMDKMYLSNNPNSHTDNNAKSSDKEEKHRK

Binder | binding result [1] | binding result [2]
B1 | binds | 
B2 |  | binds
